# Experimental data: patent US20070154994
# T1: TGF-β receptor I-K coil fusion protein (kinase domain)
# T1 chain: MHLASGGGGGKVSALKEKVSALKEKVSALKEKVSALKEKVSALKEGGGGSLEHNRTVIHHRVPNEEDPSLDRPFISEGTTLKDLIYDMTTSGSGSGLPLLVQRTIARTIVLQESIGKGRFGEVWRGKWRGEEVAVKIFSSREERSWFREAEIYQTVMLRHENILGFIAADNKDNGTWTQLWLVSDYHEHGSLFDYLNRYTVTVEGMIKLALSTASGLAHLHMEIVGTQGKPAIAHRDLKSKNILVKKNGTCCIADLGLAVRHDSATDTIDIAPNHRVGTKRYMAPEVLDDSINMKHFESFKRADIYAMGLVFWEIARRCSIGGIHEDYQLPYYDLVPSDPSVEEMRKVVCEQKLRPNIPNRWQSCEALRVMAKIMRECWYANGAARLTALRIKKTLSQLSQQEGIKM
# Biological target: T1, TGF-β receptor I-K coil fusion protein …
protein,measurement,value
TGF-β receptor II-E coil fusion protein (kinase domain) (protein) MHLASGGGGGEVSALEKEVSALEKEVSALEKEVSALEKEVSALEKGGGGSLERVNRQQKLSSTWETGKTRKLMEFSEHCAIILEDDRSDISSTCANNINHNTELLPIELDTLVGKGRFAEVYKAKLKQNTSEQFETVAVKIFPYEEYASWKTEKDIFSDINLKHENILQFLTAEERKTELGKQYWLITAFHAKGNLQEYLTRHVISWEDLRKLGSSLARGIAHLHSDHTPCGRPKMPIVHRDLKSSNILVKNDLTCCLCDFGLSLRLDPTLSVDDLANSGQVGTARYMAPEVLESRMNLENAESFKQTDVYSMALVLWEMTSRCNAVGEVKDYEPPFGSKVREHPCVESMKDNVLRDRGRPEIPSFWLNHQGIQMVCETLTECWDHDPEARLTAQCVAERFSELEHLDRLSGRSCSEEKIPEDGSLNTTK,"autophosphorylation with P33-gamma ATP, SDS-PAGE and phosphorimaging",Lane 4 corresponding to the heterodimer shows the most autophosphorylation
